test: soluble on expression in E. coli; label from the status in PepcDB or PDB records

Row | Sequence | soluble on expression in E. coli
1 | GAMEVIKNPKVFIDPLSVFKEIPFREDILRDAAIAIRYFVKNEVKFSNLFLGLTGTGKTFVSKYIFNEIEEVKKEDEEYKDVKQAYVNCREVGGTPQAVLSSLAGKLTGFSVPKHGINLGEYIDKIKNGTRNIRAIIYLDEVDTLVKRRGGDIVLYQLLRSDANISVIMISNDINVRDYMEPRVLSSLGPSVIFKPYDAEQLKFILSKYAEYGLIKGTYDDEILSYIAAISAKEHGDARKAVNLLFRAAQLASGGGIIRKEHVDKAIVDYEQERLIEAVKALPFHYKLALRSLIESEDVMSAHKMYTDLCNKFKQKPLSYRRFSDIISELDMFGIVKIRIINRGRAGGVKKYALVEDKEKVLRALNETFEDSISIGDFDDVGEN | soluble
2 | GHMPNIPPPFTAPYAPDDAEIAARLLPASHLSPPQEARIHRTATRLIEAIRKRDDRLGGVEDMLREFALSTKEGLALMVLAEALLRVPDARTADQFIEDKLGEGDFIHHETKSTAFLVNASAWALGLSARVIQPGETPDGTIGRLVKRLGAPAVRTATRQAMRLMGNHFVLGETIEQALERGKPRSGQKTRYSFDMLGEGARTAADARRYFDAYASAIETIGKAAGNHALPDRPGISVKLSALHPRFEAISRARVMVELVPQLLDLAQRAKAHDLNFTVDAEEADRLELSLDVIAATLADPSLKGWDGFGLAIQAYQKRASAVIDYVDALARAHDRKLMVRLVKGAYWDTEIKRAQERGLDGYPVFTRKAMTDLNYVACASKLLALRPRIFPQFATHNALTVATVLEMAEGSSGFEFQRLHGMGEALYEQLAKDHADIAYRTYAPVGSHRDLLAYLVRRLLENGANSSFVAQAADYRVPVPALLQRPADAIVRPQAAAHPRIPLPCDLFAPERRNSRGVEFGARTALDQLLTDVKAETGDLKPIADATPDQAHAAVAAARAGFAGWSRTPAGIRAAALEQAAHLLESRSAHFIALLQREGGKTLDDALSELREAADFCRYYAAQGRKLFGSETAMPGPTGESNALTMRGRGVFVAISPWNFPLAIFLGQVTAALMAGNSVVAKPAEQTPRIAREAVALLHEAGIPKSALYLVTGDGRIGAALTAHPDIAGVVFTGSTEVARSINRALAAKDGPIVPLIAETGGINAMIADATALPEQVADDVVTSAFRSAGQRCSALRLLFVQEDVADRMIEMVAGAARELKIGDPSDVATHVGPVIDVEAKQRLDAHIARMKTEARLHFAGPAPEGCFVAPHIFELTEAGQLTEEVFGPILHVVRYRPENLERVLRAIERTGYGLTLGVHSRIDDSIEAIIDRVQVGNIYVNRNMIGAVVGVQPFGGNGLSGTGPKAGGPHYLARFATEQTVTINTAAAGGNAALLAGEE | soluble
3 | MCMMSKVVSKMKSFLGFDEFEDEDEVMEEEEVMEEEESFAPVLSSKKNGKVVNIHTANTAKLMITKPLVYDDATEICTALKNRKIVVINTTSLELRTAQRLIDFVGGACYALCGELQEVEKGVFIVSPSNVEVSNELKSELSNKGMFNWASKLEHHHHHH | not soluble
4 | MLKDQDRIFTNLYGLKDKSLKGVMARGHWDGTKQIIEKGRDWIINEMKASGLRGRGGAGFPTGLKWSFMPKENDGRPHYLVVNADESEPGTCKDREILRNDPHTLIEGCVIAGFAMGAHTAYIYVRGEYMREREALQAAIDECYDAGLLGKNNKNGWDYDIYVHHGAGAYICGEETALLESLEGKKGQPRLKPPFPANMGLYGCPTTVNNVESIAVAPTILRRGASWFSSIGRPNNVGTKLFMVSGHVERPCTFEDALGLSFRELIEHHCGGIRGGWDNLLGVIPGGASCPIVRGEDMKDAIMDFDGMREVKSSFGTGGMIVMDKSTDVIKAIARIAAFFKHESCGQCTPCREGTGWMWRVLERMVKGNAQKREIDMLFEVTKQIEGHTICALGDAAAWPVQALIRNFRPEIEKRIDQYTYRAMDDGAVLEAAEAAALEHHHHHH | not soluble
5 | MGSSHHHHHHSSGLVPRGSHMVESKNTELSQGTWLNKPKSVFQEAGKVTLETDEKTDFWRETFYGFTRDSGHFLGVETGSAFTAQVRVQGSYESLYDQAGIMVRIDDGHWLKAGIEISDGHAMLSSVLTNGKSDWSTAVYGGNARDFWLRVTVEKGVLRIQVSSDKKTWPLVRLAPFPTSDHYLVGPMACTPERGGLKVTFSEWSLTAPLGKALHDLS | soluble
6 | MGSSHHHHHHSSGLVPRGSHMKGDKRRDIRDILLHDETLFRNMNAFDPDYVPENYRYRESQMEALAVCIRPALRNGRPVNAVILGSCATGKTTAIKKIFEMVESTSEGVVCCYINCQLHTTRFGIFSQIYSKIFGHQPPETGVPFSRIYQTIMQHLASEKRALVVALDDINHLFYSKNANKVLYDILRAHEVFEGVRTGVFAVLSDIEFRYALDKNVDSIFIPQEIVFPPYTREEVFNILRDRVRVGFYPGVISDELLERITDHTMDTGDLRYGIDLLRVCGNLAEADASPVIGEEHLERALKSTGPVNLIHTVRTLNENEREFLRILADAGEDMTAGALYELFRESTGSSYSSFNRIIEKLEFLRLIDTRLTGKGVRGNSRILIPRFSREDLRRCPGF | soluble
7 | SNAMKESNHLMDTPYSYLIRSIGMKLKTSADARLAELGLNSQQGRMIGYIYENQESGIIQKDLAQFFGRRGASITSMLQGLEKKGYIERRIPENNARQKNIYVLPKGAALVEEFNNIFLEVEESITKGLTKDEQKQLMSILIKVNRSM | soluble
8 | ASNSQLNAMAHQIQEMFPQVPYHLVLQDLQLTRSVEITTDNILEGRIQVPF | soluble
9 | RLADRMSQEGWEDPGSSSAQAAAIEHDTFGRDNDGDVILLFTAKDGIAHSPSFDKIKKYLDSLKTDHSDHVDAVTSYFDKRNAQLISKDGTTAFAAVSLRGDGEQTLKDFRAIESDLHPQFPEVTVQVAGSTAVADALDKGMSGDIKRAE | not soluble
10 | MPRYPFRRFGFGALRRLLYLWVRSETINQSAFTLKIDRSKPVLYVLQQPSVSDLAVVDTECRKAGLPRPVMPVAVGDAIEPAAFFYLTPEPDWLGRQDKRGASPTLVRMLAAVGQNGLDDAQIIPVSVFWGQSPDSESSPWKLLFADNWAVTGRLRKLARILILGRKTRVQFSAPIHLRELVEQGKGHERTLRMVNRILRVHFRNLKTAVIGPDLSHRRNLVKGLLRAPLVRQAISEECESERISQEKAEGIALRYANEIASDFSYPVIRFLEVILSWFWNKLYEGVKVNHIERVQDVAQGNEIVYVPCHRSHIDYLLLSYLLFRNGLTPPHIAAGINLNMPVIGSILRRGGAFFMRRSFKGNQLYTAVFNEYLHTLFSRGFSTEYFVEGGRSRTGRMLHPRTGMLAITLRSFLRDSRRPIVFVPVYIGYERVLEGRTYLGELRGATKKKESIFDLFKVVGALKQRFGQVWVNFGEPIHLDQFLDRHQPDWQDQDLGPEYRPDWLPQTTNLLAKDVARHLNDAAAINPVNLVALALLSTSRQALDESALARILDLYLALLRKVPYSPSATLPDGDGQALIEYVKSMNLLAEQKDALGRILYLDEQNAVLATYYRNNVLHVFALPALIASFFQSNSRISREQLLRFARALYPYLQAELFIRWSLDELDAVIDQWLAALVEQDLLRQENDTFIRPAPSSRQYVLLILLARSVTQTLQRFYMAIALLLNAGQNALTAEELENLCTVMAQRLSILHGLNAPEFFDKSLFRHFIQTLLDLRVLRKDEAGKLSYHELLGELAEGAAKRVLPAEIRLSIRQVALERPAEEAAAESN | not soluble
11 | SNAMTEEHVVLLDEQDKPSGTLEKYAAHTLNTPLHLAFSCWLFNEDGQLLVTRRSLSKKAWPGVWTNSVCGHPQQGETTEEAIIRRCRFELGVEITDLTPVYPHFSYRATDPNGIVENEVCPVFAARATSVLQVNSEEVMDYQWSEFKSVWKSLLATPWAFSPWMVMQASDEQARERLLNYCQR | soluble
12 | MDEIEKNNGEIIIYRTEDGRTQLEVRLENENVWLSQQQMSELFQTSRTNIVEHIKHIFEEGELEENSTCQIFRQVRIEGTRKVERSIPFYNLDMIISLGYRVKSRVATHFRRWATERLKEYLIKGFAMDDQRLKEIGGGGYWYELLNRIRDIRSSEKVLYRQVLDLYATSVDYDPKADESIRFFKIVQNKLHYAAHGHTAAEVIFERADAEKPFMGLATFPGEQPRKEDVLIAKNYLNEKELKILNNLVSGYFDFAEIQAIKRSPMYMSDYIHHLDLILSTTGEQVLQNAGTISHEQAKQKALGEYRKYHVKTLSPVEEAYFDSIKKLTAETKKKKKK | not soluble

— the DeepSol protein solubility set
